# Laboratory results published in US20150368616A1, “METHODS FOR INDUCTION OF CELL FATES FROM PLURIPOTENT CELLS” (THE CLEVELAND CLINIC FOUNDATION, priority 2013, published 2015).
# Key:
# Format in all cases: cell-based, human
# [1] = test system: forward differentiating hES culture; experiment: Two stage protocol: Pan-CM 8 days then second stage medium with MG132, DAPT, forskolin, sodium propionate; transcript analysis; settings: compared with MG132
# Experimental: As a means to optimize the differentiation of insulin producing cells a two stage protocol was used in which pluripotent cultures were incubated in the presence of Pan-CM for 8 days as a means of generating pancreatic precursors cellular population. The medium these cultures were incubated in were subsequently changed to a medium designed to enhance differentiation of a pancreatic precursor towards a beta-cell terminal fate. All second stage experiments were performed in a medium composed of DMEM/F12 containing 12 mM Glucose supplemented with 1% B27, 1% Pyruvate, 1 uM Alk5 Inh II, 500 ng/ml Noggin and 0.5 uM (1,25 OH2)-Vit D3.
# Among the compounds assayed for the ability to increase insulin production in a forward differentiating culture was the proteosomal inhibitor MG132 which we used in the previous example to stabilize Ngn3 protein. We also included the gamma secretase inhibitor DAPT, which was shown in the previous example to greatly increase beta-cell formation in the developing embryonic pancreatic explant study. We also included the short fatty acid salt sodium propionate, which acts as an agonist of short-chain fatty acid receptors. We also included the adenylyl cyclase activator forskolin. We also included the nuclear hormone receptor agonist 1,25 (OH)2)-Vit D3, which binds to, and activates the VDR protein. We also used intermediate concentrations of glucose, shown by others to increase formation of insulin producing cells from pluripotent derivatives. These compounds were used individually or in combination (as outlined in FIG. 37 panel A) to increase insulin-producing endocrine cell formation in a short term Pan-CM treated forward differentiating hES culture system.
# hES cultures = experiment: Individual defined medium components added throughout stages 2 and 3 of a directed differentiation protocol, qRT-PCR and IHC; settings: for Pdx1 relative transcript level over hES levels / FoxA2 relative transcript level over hES levels: additive throughout stage 2 and stage 3; for Pdx1 relative transcript level over hES levels: control ~2500 fold; for FoxA2 relative transcript level over hES levels: control ~75 fold
# Source text: To assay the individual protein components within the cell conditioned medium defined by the microarray analysis, the individual components were included throughout stages 2 and 3 of a directed differentiation protocol. […] Panels B-G show immunohistochemical stainings for Pdx1 and Hnf1-beta for the control reaction (panel B, D and F) and the reaction performed with the addition of Hb-EGF (panels C, E and G).
# Since we have seen that the Pan-CM induced differentiation of the pluripotent culture results in an increased presence of pancreatic progenitors within forward differentiating cultures we next assayed the individual components of the cell conditioned medium as single additives throughout stage 2 and stage 3 of a directed differentiation protocol. Stage 2 and stage 3 cultures were assayed since these are the stages which normally establish pancreatic endoderm within directed differentiation protocols. An outlined schematic of the components used throughout the directed differentiation is provided in FIG. 45 panel A. Three genes were assayed throughout this series of experiments: the endodermal gene FoxA2, the early pancreatic progenitor gene Pdx1 and the endocrine progenitor gene Nkx6.1. […] The most dramatic effect noted within the genes assayed throughout this series of experiments was observed within the Pdx1 transcript levels obtained within cultures that had either Hb-EGF or FGF10 included throughout stage 2 and stage 3.
# While this series of experiments have successfully established a beneficial effect for the inclusion of a FGF ligand within throughout stages 2 and 3 of a directed differentiation protocol, it should be noted many directed differentiation protocols already currently include a either FGF10 or FGF7 within either stage 2, stage 3 or both. […] This effect may have been due to the high concentration of Activin A used within these reactions 100 ng/ml. This high concentration was chosen because it is the typical concentration used in generating endoderm during stage 1 of directed differentiation protocols, however the actual concentration present within the Pan-CM was undetermined and may have been quite lower. […] This implies that the benefit due to their presence within the directed differentiation protocol may only be detectable by assaying other pancreatic markers or assaying the directed differentiation cultures at later stages, or as in them being a supportive component in a multi-factorial additive provision, yet unable to operate to induce pancreatic fates when provided alone.
# pluripotent cultures = experiment: Stage 4 administration of individual defined components in directed differentiation, RT-qPCR; settings: component added at stage 4, 4 days
# Source text: FIG. 46 (A-B)—Stage 4 administration of defined components. Pluripotent cultures were passaged onto matrigel and maintained in the presence of MEF-conditioned medium for three days before being subjected to a directed differentiation protocol. At the end of stage 3 the individual components of the cell conditioned medium were supplemented into the cultures. After 4 days RNA was extracted from the various cultures and subjected to RT-qPCR analysis for key markers.
# We next explored if there were any beneficial effects from inclusion of the individual components of the cell conditioned medium in stage 4 cultures. The individual components were assayed in a directed differentiation protocol for their ability to up regulate markers of the pancreatic truck progenitor state. […] It was noted that both Mfap5 and Nbl1 up regulated the expression of HNF6.
# Bmp4 = Bmp4 stimulus of pluripotent cells with Nbl1 or Noggin: phospho smad 1/5/8 Western/IHC, ID factor RNA; settings: for ID2 and ID4, direct gene targets of Bmp4 signaling / Bmp4 induced phosphorylated smad 1/5/8: 24 hours; for ID2 and ID4, direct gene targets of Bmp4 signaling: RNA analysis; for Bmp4 induced phosphorylated smad 1/5/8: Western blot and IHC
# Experimental: FIG. 42 (A-C)—Nbl1 inhibits BMPs. Pluripotent cells were incubated in the presence of Bmp4 alone or in combination with Nbl1 or Noggin for 24 hours. The following day cultures were assayed for downstream targets of Bmp4 signaling. […] Note the reduced expression of the phosphorylated smads for both Nbl1 and Noggin. […] In addition the down stream activation of AFP was loss in the cultures treated with Nbl1 and Noggin.
# Our initial experiment testing the ability of a Pan-CM informed defined medium ability to replicate the direct induction of pancreatic fates relied on the use of Noggin as a BMP inhibitor. This was due to the fact that Nbl1 was not available at the time so a member of the same family of proteins was used. We obtained the NBL1 protein (Sino Biologicals, cat number 10169-H02H) and determined if Nbl1 operates as a Bmp signaling inhibitor. Pluripotent cultures were subjected to a Bmp4 stimulus in the presence and absence of either Noggin or Nbl1. […] This inhibitory effect was also observed by immunohistochemical analysis of the treated cultures and is shown in FIG. 42 panel B. In addition the direct gene targets of Bmp4 signaling, ID2 and ID4, were assayed and shown to be inhibited in the presence of Noggin or Nbl1 (FIG. 42 panel C) as was the downstream target of Afp (panel B).
Molecule,NKX6.1 expression (pluripotent cultures),PDX1 expression (pluripotent cultures),Pdx1 relative transcript level over hES levels (hES cultures),also measured
CCC(=O)[O-].[Na+] [sodium propionate],,,,effects on pancreas-specific transcript levels [1]: minor in comparison
Activin A: Activin receptor agonist,positively effected,significantly up-regulated,,effect of continued incubation on the cultures (hES cultures; 100 ng/ml throughout stage 2 and 3): detrimental effect on the cultures
"Cxcl12: CXCR4 agonist, stromal cell derived factor one",,down-regulated,slight increase,
"Nbl1: DAN family protein, NBL1 protein (Sino Biologicals, cat number 10169-H02H) (protein, UniProt P41271 17-181, looked up) Neuroblastoma suppressor of …: AAPPPINKLALFPDKSAWCEAKNITQIVGHSGCEAKSIQNRACLGQCFSYSVPNTFPQSTESLVHCDSCMPAQSMWEIVTLECPGHEEVPRVDKLVEKILHCSCQACGKEPSHEGLSVYVQGEDGPGSQPGTHPHPHPHPHPGGQTPEPEDPPGAPHTEEEGAED",positively effected,,,"function on Bmp4 signaling (Bmp4): functions as a Bmp4 inhibitor; ID2 and ID4, direct gene targets of Bmp4 signaling (Bmp4): inhibited; Bmp4 induced phosphorylated smad 1/5/8 (Bmp4): failed to produce this BMP specific phosphorylation event; HNF6 expression (pluripotent cultures): up regulated"
"FGF10: FGF growth factor (protein, UniProt O15520 38-208, looked up) Fibroblast growth factor 10: QALGQDMVSPEATNSSSSSFSSPSSAGRHVRSYNHLQGDVRWRKLFSFTKYFLKIEKNGKVSGTKKENCPYSILEITSVEIGVVAVKAINSNYYLAMNKKGKLYGSKEFNNDCKLKERIEENGYNTYASFNWQHNGRQMYVALNGKGAPRRGQKTRRKNTSAHFLPMVVHS",,,~8500 fold,
"Mfap5: non-canonical notch agonist (protein, UniProt Q9QZJ6 29-164, looked up) Microfibrillar-associated …: QRGDDVPETFTDDPNLVNDPSTDDTALADITPSTDDLAGDKNATAECRDEKFACTRLYSVHRPVRQCVHQSCFTSLRRMYIINNEICSRLVCKEHEAMKDELCRQMAGLPPRRLRRSNYFRLPPCENMNLQRPDGL",positively effected,significantly up-regulated,,HNF6 expression (pluripotent cultures): up regulated
"Noggin: BMP inhibitor (protein, UniProt Q13253 28-232, looked up) Noggin: QHYLHIRPAPSDNLPLVDLIEHPDPIFDPKEKDLNETLLRSLLGGHYDPGFMATSPPEDRPGGGGGAAGGAEDLAELDQLLRQRPSGAMPSEIKGLEFSEGLAQGKKQRLSKKLRRKLQMWLWSQTFCPVLYAWNDLGSRFWPRYVKVGSCFSKRSCSVPEGMVCKPSKSVHLTVLRWRCQRRGGQRCGWIPIQYPIISECKCSC",,,,"ID2 and ID4, direct gene targets of Bmp4 signaling (Bmp4): inhibited; Bmp4 induced phosphorylated smad 1/5/8 (Bmp4): failed to produce this BMP specific phosphorylation event"
"Il11: IL11R agonist (protein, UniProt P47873 22-199, looked up) Interleukin-11: PGPPAGSPRVSSDPRADLDSAVLLTRSLLADTRQLAAQMRDKFPADGDHSLDSLPTLAMSAGTLGSLQLPGVLTRLRVDLMSYLRHVQWLRRAGGPSLKTLEPELGALQARLERLLRRLQLLMSRLALPQAAPDQPVIPLGPPASAWGSIRAAHAILGGLHLTLDWAVRGLLLLKTRL",positively effected,significantly up-regulated,slight increase,FoxA2 relative transcript level over hES levels (hES cultures): ~160 fold
"Hb-EGF: EGFR agonist (protein, UniProt Q99075 63-148, looked up) Heparin-binding EGF-like …: DLQEADLDLLRVTLSSKPQALATPNKEEHGKRKKKGKGLGKKRDPCLRKYKDFCIHGECKYVKELRAPSCICHPGYHGERCHGLSL",,down-regulated,~8500 fold,FoxA2 relative transcript level over hES levels (hES cultures): ~125 fold
